In the series the target is MeCP2-MBD WT (Homo sapiens, UniProt P51608 80-164). The series can be described thus: ITC.

Broadly, the Kd is the concentration at which binding is half-saturated. Low values mean a tighter complex, high ones a looser complex.

Sequence of MeCP2-MBD WT (P51608 80-164): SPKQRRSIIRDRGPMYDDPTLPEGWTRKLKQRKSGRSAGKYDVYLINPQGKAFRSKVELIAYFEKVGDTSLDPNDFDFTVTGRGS

B1: Mutated MARs DNA 16mer (dsDNA)
DNA 1: GCCCTGGTGTAGTGGC
DNA 2: GCCACTACACCAGGGC
As to B1, the affinity, expressed as Kd, was 3.8 ± 0.7 µM.

B2: MARs DNA 16mer (dsDNA)
DNA 1: GTGCAGGTGTCCTTAA
DNA 2: TTAAGGACACCTGCAC
In turn, B2 yielded a Kd of 2.8 ± 0.2 µM.
